Results: patent publication US20260265373A1 (INMAGENE PTE, published 2026)
Substitutions are numbered along the chain they refer to.

How the values were obtained:
[1] = target: T1, full-length human ILT7 on cells (human, UniProt P59901 24-499); assay: cell-based or functional assay
human ILT7-his protein [2] = target: T2, human ILT7-his protein (human, UniProt P59901 28-446); assay: ELISA, plate coated with human ILT7-his
T2 construct: also called human ILT7 protein
Method: Methods: The binding of the chimeric anti-ILT7 antibodies identified from the screening, including cmAb12, to human ILT7-his protein was measured by ELISA, along with an isotype antibody hIgG1 as negative control and a reference anti-ILT7 antibody Tab1. 96-well ELISA plates were coated with human ILT7-his in PBS (2 μg/ml) overnight at 4° C. Chimeric antibodies were added to the wells and co-incubated with the coating protein at 37° C. for 1 hour, followed by the addition of secondary HRP labelled antibody. After incubation at 37° C. for 1 more hour, TMB substrate was added to wells and incubated at RT for 15 min. 1 N HCl was added to terminate the reactions. The absorbance at 450 nm was measured with a microplate reader.
Methods: The binding affinity of the humanized cmAb12 antibody, hu-cmAb12, was further measured by surface plasmon resonance (SPR) technology with Biacore 8K. As used herein, “hu-cmAb12” refers to a specific antibody clone variant of the Hu12-04 antibody of Examples 8 and 9. The hu-cmAb12 antibody includes a VL having the amino acid sequence of SEQ ID NO: 19, a VH having the amino acid sequence of SEQ ID NO: 26, and a CH having the amino acid sequence of SEQ ID NO: 55. hu-cmAb12 or Tab1 were immobilized on CM-5 chip. The assay was performed at 25° C. and the running buffer was 1×HEPES (10 mM HEPES, 150 mM NaCl, 3 mM EDTA) with 0.005% Tween-20, pH 7.4. […]

[3] = target: T1, full-length human ILT7 on cells; assay: flow cytometry on 293F-human ILT7 cells
Method: (§1) Methods: The binding affinities of chimeric anti-ILT7 antibodies identified from the screening, including cmAb12, to human ILT7 or cynomolgus ILT7 expressed on cell membrane were measured by flow cytometry. Vectors containing coding sequences for full-length cynomolgus ILT7 (SEQ ID NO: 6) and hFcεRiγ (SEQ ID NO: 7) were generated. […] Both cell lines were seeded, resuspended, and incubated with the chimeric antibodies at 4° C. for 1 hour. Cells were then washed with cold FACS buffer (PBS+2% FBS), resuspended, and incubated with secondary antibody at 4° C. for 1 hour. hIgG1 and Tab1 were used as controls.
(§2) Cells were washed with cold FACS buffer (PBS+2% FBS) by centrifuging, followed by addition of secondary antibodies, and incubation at 4° C. for 1 hour. An isotype control antibody and reference anti-ILT7 antibody Tab1 were used as negative and positive controls. The concentration-MFI curves of FACs were then determined.

[4] = target: T3, full-length cynomolgus ILT7 on cells (cynomolgus, UniProt P59901 24-499 (human entry)); assay: flow cytometry on CHOK1-cynomolgus ILT7 cells
T3 construct: also called CHOK1-cynomolgus ILT7 cells
T3 sequence (P59901 other isoform, or with tags, fused parts or gaps limits assumed): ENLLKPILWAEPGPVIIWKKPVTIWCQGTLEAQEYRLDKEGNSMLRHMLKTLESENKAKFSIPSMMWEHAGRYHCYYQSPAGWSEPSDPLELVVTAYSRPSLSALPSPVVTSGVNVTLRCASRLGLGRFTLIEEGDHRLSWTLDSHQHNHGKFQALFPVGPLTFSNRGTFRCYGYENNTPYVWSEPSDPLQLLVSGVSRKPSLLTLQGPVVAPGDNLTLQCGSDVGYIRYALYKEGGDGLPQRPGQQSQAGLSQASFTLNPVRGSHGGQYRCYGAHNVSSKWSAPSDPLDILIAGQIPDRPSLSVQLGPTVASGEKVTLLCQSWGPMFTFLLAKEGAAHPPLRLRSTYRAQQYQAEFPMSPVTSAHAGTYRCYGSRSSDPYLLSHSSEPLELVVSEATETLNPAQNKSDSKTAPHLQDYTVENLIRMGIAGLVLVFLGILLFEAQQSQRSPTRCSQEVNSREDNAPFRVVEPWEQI
Method: as §1, §2

human ILT7-his protein [5] = target: T2, human ILT7-his protein; assay: SPR, Biacore 8K, antibody captured on the chip, human ILT7-his as analyte, 25° C.
From the text: (§3) Methods: The binding affinity of the humanized cmAb12 antibody, hu-cmAb12, was further measured by surface plasmon resonance (SPR) technology with Biacore 8K. As used herein, “hu-cmAb12” refers to a specific antibody clone variant of the Hu12-04 antibody of Examples 8 and 9. The hu-cmAb12 antibody includes a VL having the amino acid sequence of SEQ ID NO: 19, a VH having the amino acid sequence of SEQ ID NO: 26, and a CH having the amino acid sequence of SEQ ID NO: 55. hu-cmAb12 or Tab1 were immobilized on CM-5 chip. The assay was performed at 25° C. and the running buffer was 1×HEPES (10 mM HEPES, 150 mM NaCl, 3 mM EDTA) with 0.005% Tween-20, pH 7.4. Diluted antibodies were captured on the sensor chip through Fc capture method. Human ILT7-his was used as the analyte, and running buffer was used as the dissociation phase. Similarly, ELISA was conducted as described above. An isotype control antibody and reference anti-ILT7 antibody Tab1 were used as controls.

human ILT7-his protein [6] = target: T2, human ILT7-his protein; assay: SPR (Biacore 8K), antibody captured through Fc, human ILT7-his as analyte, 25 C
From the text: as §3

[7] = target: T1, full-length human ILT7 on cells; assay: flow cytometry on 293F-human ILT7 cells, MFI
[8] = target: T1, full-length human ILT7 on cells; assay: flow cytometry on 293F-human ILT7 cells, MFI; remark: listed apart in the source
[9] = target: T3, full-length cynomolgus ILT7 on cells; assay: flow cytometry on CHOK1-cynomolgus ILT7 cells, MFI
[10] = target: T3, full-length cynomolgus ILT7 on cells; assay: flow cytometry on CHOK1-cynomolgus ILT7 cells, MFI; remark: listed apart in the source
human ILT7-his protein [11] = target: T2, human ILT7-his protein; assay: ELISA, OD450; the x axis is labelled 'human ILT7 Conc (µg/ml)'
human ILT7-his protein [12] = target: T2, human ILT7-his protein; assay: ELISA, plate coated with human ILT7-his, antibody titrated, OD450
LILRA3/ILT6 [13] = target: T4, LILRA3/ILT6 (UniProt Q8N6C8 24-439); assay: ELISA, plate coated with 1 µg/ml LILR protein
T4 sequence (Q8N6C8 24-439 limits assumed): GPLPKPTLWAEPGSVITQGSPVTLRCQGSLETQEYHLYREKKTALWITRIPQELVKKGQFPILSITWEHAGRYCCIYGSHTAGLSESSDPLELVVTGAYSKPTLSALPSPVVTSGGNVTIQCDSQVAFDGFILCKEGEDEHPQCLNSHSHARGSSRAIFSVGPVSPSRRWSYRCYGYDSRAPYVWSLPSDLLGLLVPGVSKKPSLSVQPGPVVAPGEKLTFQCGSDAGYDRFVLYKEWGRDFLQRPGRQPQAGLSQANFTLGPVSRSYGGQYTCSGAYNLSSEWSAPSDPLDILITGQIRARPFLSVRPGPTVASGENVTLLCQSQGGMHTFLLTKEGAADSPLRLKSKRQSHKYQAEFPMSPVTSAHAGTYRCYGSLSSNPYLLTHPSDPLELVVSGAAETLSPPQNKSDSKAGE
Method: (§4) Methods: The binding specificities of the chimeric antibodies, including cmAb12, for ILT7 over its related 10 LILR superfamily member proteins were evaluated by ELISA. Plates coated with 1 μg/ml LILR superfamily protein as indicated were incubated with chimeric antibodies at 37° C. for 1 hour, followed by the secondary antibody.

LILRA5/ILT11 [14] = target: T5, LILRA5/ILT11 (UniProt A6NI73 42-268, limits assumed); assay: ELISA, plate coated with 1 µg/ml LILR protein
T5 sequence (A6NI73 42-268 limits assumed): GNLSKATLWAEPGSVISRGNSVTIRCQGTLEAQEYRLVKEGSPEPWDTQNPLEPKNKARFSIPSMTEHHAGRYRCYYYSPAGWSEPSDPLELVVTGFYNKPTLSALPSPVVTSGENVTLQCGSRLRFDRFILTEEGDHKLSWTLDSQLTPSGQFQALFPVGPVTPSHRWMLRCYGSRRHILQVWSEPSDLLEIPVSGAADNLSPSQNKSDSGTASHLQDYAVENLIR
Method: as §4

LILRA6/ILT8 [15] = target: T6, LILRA6/ILT8 (UniProt Q6PI73 24-447, limits assumed); assay: ELISA, plate coated with 1 µg/ml LILR protein
T6 sequence (Q6PI73 24-447 limits assumed): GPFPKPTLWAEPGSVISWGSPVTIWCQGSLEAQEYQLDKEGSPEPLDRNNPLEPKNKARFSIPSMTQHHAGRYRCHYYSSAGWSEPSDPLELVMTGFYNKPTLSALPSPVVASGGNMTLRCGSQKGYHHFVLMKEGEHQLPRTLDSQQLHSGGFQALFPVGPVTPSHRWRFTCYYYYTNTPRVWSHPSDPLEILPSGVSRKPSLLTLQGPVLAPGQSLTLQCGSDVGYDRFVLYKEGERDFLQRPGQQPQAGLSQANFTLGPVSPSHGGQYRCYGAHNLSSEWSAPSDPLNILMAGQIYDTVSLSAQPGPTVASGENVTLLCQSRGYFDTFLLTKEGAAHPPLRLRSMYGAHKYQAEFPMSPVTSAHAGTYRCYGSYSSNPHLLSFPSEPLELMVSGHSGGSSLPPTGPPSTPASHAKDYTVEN
Method: as §4

LILRB1/ILT2 [16] = target: T7, LILRB1/ILT2 (UniProt Q8NHL6 24-461, limits assumed); assay: ELISA, plate coated with 1 µg/ml LILR protein
T7 sequence (Q8NHL6 24-461 limits assumed): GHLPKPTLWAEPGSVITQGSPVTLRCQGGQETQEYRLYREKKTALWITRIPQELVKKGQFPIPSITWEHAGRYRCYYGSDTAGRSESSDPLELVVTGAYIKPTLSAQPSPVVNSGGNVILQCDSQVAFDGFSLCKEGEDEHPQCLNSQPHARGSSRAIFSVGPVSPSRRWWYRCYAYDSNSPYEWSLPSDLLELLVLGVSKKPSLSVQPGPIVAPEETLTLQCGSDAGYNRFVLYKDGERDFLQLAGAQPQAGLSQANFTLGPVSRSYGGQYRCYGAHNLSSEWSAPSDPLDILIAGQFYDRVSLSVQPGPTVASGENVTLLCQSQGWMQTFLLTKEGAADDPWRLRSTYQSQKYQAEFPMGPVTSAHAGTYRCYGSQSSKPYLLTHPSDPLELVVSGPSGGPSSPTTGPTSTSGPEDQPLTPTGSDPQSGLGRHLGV
Method: as §4

LILRB2/ILT4 [17] = target: T8, LILRB2/ILT4 (UniProt Q8N423 22-460, limits assumed); assay: ELISA, plate coated with 1 µg/ml LILR protein
T8 sequence (Q8N423 22-460 limits assumed): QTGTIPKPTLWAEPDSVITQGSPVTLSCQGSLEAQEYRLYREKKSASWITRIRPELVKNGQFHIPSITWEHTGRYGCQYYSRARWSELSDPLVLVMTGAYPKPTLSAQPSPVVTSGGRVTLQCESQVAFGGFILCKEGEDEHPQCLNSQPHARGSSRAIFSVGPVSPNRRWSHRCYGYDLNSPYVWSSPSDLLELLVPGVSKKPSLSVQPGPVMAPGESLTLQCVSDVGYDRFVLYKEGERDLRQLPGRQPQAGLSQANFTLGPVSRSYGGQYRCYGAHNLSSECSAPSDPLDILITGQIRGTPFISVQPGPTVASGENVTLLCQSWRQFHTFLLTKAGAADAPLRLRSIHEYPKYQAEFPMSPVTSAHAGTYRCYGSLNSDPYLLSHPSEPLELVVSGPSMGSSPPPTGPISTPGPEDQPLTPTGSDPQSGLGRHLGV
Method: as §4

LILRB3/ILT5 [18] = target: T9, LILRB3/ILT5 (UniProt O75022 24-443, limits assumed); assay: ELISA, plate coated with 1 µg/ml LILR protein
T9 sequence (O75022 24-443 limits assumed): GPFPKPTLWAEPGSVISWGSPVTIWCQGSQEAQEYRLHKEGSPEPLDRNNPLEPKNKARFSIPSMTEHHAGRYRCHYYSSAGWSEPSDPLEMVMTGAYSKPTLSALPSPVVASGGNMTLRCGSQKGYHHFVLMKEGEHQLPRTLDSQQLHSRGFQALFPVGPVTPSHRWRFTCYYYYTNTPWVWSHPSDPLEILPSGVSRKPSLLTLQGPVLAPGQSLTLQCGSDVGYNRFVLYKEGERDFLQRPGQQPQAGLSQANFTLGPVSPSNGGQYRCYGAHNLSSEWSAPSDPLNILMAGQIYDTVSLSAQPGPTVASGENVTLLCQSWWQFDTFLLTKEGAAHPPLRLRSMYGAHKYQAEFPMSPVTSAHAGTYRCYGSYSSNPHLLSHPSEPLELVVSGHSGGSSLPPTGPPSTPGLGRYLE
Method: as §4

LILRB4/ILT3 [19] = target: T10, LILRB4/ILT3 (UniProt Q8NHJ6 22-259); assay: ELISA, plate coated with 1 µg/ml LILR protein
Method: as §4

LILB5 [20] = target: T11, LILB5 (UniProt O75023 24-458, limits assumed); assay: ELISA, plate coated with 1 µg/ml LILR protein
T11 construct: also called LILRB5 (printed as LILB5)
T11 sequence (O75023 24-458 limits assumed): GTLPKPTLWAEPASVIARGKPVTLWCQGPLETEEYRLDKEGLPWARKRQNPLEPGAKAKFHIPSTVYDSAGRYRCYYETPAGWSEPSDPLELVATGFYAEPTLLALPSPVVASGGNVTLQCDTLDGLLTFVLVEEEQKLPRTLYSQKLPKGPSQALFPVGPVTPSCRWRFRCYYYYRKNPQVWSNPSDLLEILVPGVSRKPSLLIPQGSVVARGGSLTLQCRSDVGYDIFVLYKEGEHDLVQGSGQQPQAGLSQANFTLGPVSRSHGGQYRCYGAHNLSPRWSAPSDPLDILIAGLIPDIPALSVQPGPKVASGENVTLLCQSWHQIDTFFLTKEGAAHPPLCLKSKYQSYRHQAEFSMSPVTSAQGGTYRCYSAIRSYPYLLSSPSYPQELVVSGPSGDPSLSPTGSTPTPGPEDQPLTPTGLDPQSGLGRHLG
Method: as §4

LILRA1 [21] = target: T12, LILRA1 (UniProt O75019 17-461, limits assumed); assay: ELISA, plate coated with 1 µg/ml LILR protein
Method: as §4

LILRA2/ILT1 [22] = target: T13, LILRA2/ILT1 (UniProt Q8N149 24-449, limits assumed); assay: ELISA, plate coated with 1 µg/ml LILR protein
T13 sequence (Q8N149 24-449 limits assumed): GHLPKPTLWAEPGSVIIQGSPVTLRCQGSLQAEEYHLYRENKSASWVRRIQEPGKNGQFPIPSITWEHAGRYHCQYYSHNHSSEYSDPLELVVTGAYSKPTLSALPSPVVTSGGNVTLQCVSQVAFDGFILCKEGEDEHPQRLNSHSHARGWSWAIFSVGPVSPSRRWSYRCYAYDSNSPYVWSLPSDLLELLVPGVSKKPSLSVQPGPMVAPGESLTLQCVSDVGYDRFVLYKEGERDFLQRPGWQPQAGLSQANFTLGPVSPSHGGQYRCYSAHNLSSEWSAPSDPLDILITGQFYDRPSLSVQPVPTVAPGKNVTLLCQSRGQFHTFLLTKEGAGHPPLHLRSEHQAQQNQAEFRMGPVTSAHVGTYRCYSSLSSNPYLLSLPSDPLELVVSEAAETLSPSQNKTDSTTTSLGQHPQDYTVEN
Method: as §4

LILRA3/ILT6 [23] = target: T4, LILRA3/ILT6; assay: ELISA, plate coated with 1 µg/ml LILR superfamily protein
Method: as §4

LILRA5/ILT11 [24] = target: T5, LILRA5/ILT11; assay: as above
Method: as §4

LILRA6/ILT8 [25] = target: T6, LILRA6/ILT8; assay: as above
Method: as §4

LILRB1/ILT2 [26] = target: T7, LILRB1/ILT2; assay: as above
Method: as §4

LILRB2/ILT4 [27] = target: T8, LILRB2/ILT4; assay: as above
Method: as §4

LILRB3/ILT5 [28] = target: T9, LILRB3/ILT5; assay: as above
Method: as §4

LILRB4/ILT3 [29] = target: T10, LILRB4/ILT3; assay: as above
Method: as §4

LILB5 [30] = target: T11, LILB5; assay: as above
Method: as §4

LILRA1 [31] = target: T12, LILRA1; assay: as above
Method: as §4

LILRA2/ILT1 [32] = target: T13, LILRA2/ILT1; assay: as above
Method: as §4

T1 sequence (P59901 other isoform, or with tags, fused parts or gaps): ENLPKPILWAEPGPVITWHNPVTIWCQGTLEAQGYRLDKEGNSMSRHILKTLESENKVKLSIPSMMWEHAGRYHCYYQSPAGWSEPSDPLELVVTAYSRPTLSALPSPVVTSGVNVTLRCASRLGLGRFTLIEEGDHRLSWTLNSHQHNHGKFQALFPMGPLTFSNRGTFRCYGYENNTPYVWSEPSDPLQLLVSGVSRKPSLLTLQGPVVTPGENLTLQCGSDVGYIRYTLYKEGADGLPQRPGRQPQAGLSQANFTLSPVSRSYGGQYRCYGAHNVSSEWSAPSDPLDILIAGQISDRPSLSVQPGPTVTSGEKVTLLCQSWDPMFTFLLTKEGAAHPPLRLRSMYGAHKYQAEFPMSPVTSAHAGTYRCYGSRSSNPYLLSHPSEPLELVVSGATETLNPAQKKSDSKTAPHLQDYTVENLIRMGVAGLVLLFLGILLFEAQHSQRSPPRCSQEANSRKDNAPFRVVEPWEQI
T2 sequence (P59901 other isoform, or with tags, fused parts or gaps): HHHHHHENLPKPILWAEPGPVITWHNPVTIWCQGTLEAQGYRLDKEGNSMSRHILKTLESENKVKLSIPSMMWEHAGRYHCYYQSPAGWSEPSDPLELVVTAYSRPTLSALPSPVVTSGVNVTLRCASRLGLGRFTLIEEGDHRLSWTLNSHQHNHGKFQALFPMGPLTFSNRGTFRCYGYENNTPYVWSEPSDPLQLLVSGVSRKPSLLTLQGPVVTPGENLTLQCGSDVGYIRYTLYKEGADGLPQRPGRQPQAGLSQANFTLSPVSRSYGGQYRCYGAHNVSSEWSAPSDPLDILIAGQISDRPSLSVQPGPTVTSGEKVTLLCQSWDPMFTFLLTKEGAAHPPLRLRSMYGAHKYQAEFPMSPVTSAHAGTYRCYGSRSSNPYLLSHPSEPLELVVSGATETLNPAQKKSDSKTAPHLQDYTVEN

B1: humanized antibody hu-cmAb12 (antibody, V domains shown)
VH: QVQLVQSGAEVKKPGASVKVSCKASGYTFTEYPMHWVRQAPGQRLEWMGMIYTDTGEPAYAEEFKGRVTITRDTSASTAYMELSSLRSEDTAVYYCARELGQNFDYWGQGTTVTVSS
VL: DIVLTQSPASLAVSPGQRATITCRASQSVSTSSYSYMHWYQQKPGQPPKLLIYYASNLESGVPARFSGSGSGTDFTLTINPVEAEDTANYYCQHSWDIPYTFGQGTKLEIK
modifications: Example 12: the antibody was conjugated with the dye Alexa488, which the letters do not carry.
notes: also called antibody clone variant of Hu12-04
- NK-dependent ADCC activity (% Cytotoxicity), EC50 [1]: 0.0038 nM
- macrophage-dependent ADCP activity, EC50 (Donor 1) [1]: 0.881 nM
- macrophage-dependent ADCP activity, EC50 (Donor 2) [1]: 2.17 nM
- macrophage-dependent ADCP activity, EC50 (Donor 3) [1]: 1.58 nM
- neutrophil-dependent ADCC activity (% Cytotoxicity), EC50 [1]: 16.1 nM
- EC50 (human ILT7-his protein [2]): 0.0791 µg/mL
- EC50 [3]: 0.343 nM
- EC50 [4]: 1.65 nM
- Kd (human ILT7-his protein [5]): 111 nM
- koff (human ILT7-his protein [6]): 0.106 s⁻¹
- kon (human ILT7-his protein [6]): 959000 M⁻¹ s⁻¹

B2: benchmark antibody daxdilimab (Tab1) (antibody, V domains shown)
VH: QVQLQQSGAEVKKPGASVKVSCKASGYTFTSYGISWVRQAPGQGLEWMGWISAYNGNTNYAQKLQGRVTMTIDTSTSTAYMELRSLRSDDTAVYYCARNGLWGWDSDAFDIWGRGTLVTVSS
VL: QSALTQPASVSGSPGQSITISCTGTSSDVGGYNYVSWYQQHPGKAPKLMIYDVSNRPSGVSNRFSGSKSGNTASLTISGLQAEDEADYYCSSYTSSSTVVFGGGTKVTVL
- NK-dependent ADCC activity (% Cytotoxicity), EC50 [1]: 0.0103 nM
- EC50 [7]: 0.383 nM
- EC50 [8]: 0.579 nM
- EC50 [9]: 1.1 nM
- EC50 [10]: 2.46 nM
- EC50 (human ILT7-his protein [11]): 0.0398 µg/mL
- EC50 (human ILT7-his protein [12]): 0.0682 nM
- Kd (human ILT7-his protein [6]): 71.3 nM
- koff (human ILT7-his protein [6]): 0.0278 s⁻¹
- kon (human ILT7-his protein [6]): 390000 M⁻¹ s⁻¹

B3: chimeric antibody Ab12 (cmAb12) (antibody, human IgG1, V domains shown)
VH: QIQLVQSGPELKKPGETVKISCKASGYTFTEYPMHWVKQAPGKGFKWMGMIYTDTGEPAYAEEFKGRFAFSLETSASTAYLQINNLKNEDTATYFCVRELGQNFDYWGQGTTLTVSS
VL: B1 VL with P15L, T22S, Y53K, T78N, N80H, A84E, N89T, Q104G
notes: also called chimeric Ab12
- EC50 (human ILT7-his protein [2]): 0.0751 nM
- EC50 [3]: 0.312 nM
- EC50 [4]: 0.939 nM
- ELISA OD 450 nM (LILRA3/ILT6 [13]): 0.1 OD450
- ELISA OD 450 nM (LILRA5/ILT11 [14]): 0.1 OD450
- ELISA OD 450 nM (LILRA6/ILT8 [15]): 0.1 OD450
- ELISA OD 450 nM (LILRB1/ILT2 [16]): 0.1 OD450
- ELISA OD 450 nM (LILRB2/ILT4 [17]): 0.3 OD450
- ELISA OD 450 nM (LILRB3/ILT5 [18]): 0.1 OD450
- ELISA OD 450 nM (LILRB4/ILT3 [19]): 0.1 OD450
- ELISA OD 450 nM (LILB5 [20]): 0.1 OD450
- ELISA OD 450 nM (LILRA1 [21]): 0.1 OD450
- ELISA OD 450 nM (LILRA2/ILT1 [22]): 0.2 OD450
- binding result (LILRA3/ILT6 [23]): no binding
- binding result (LILRA5/ILT11 [24]): no binding
- binding result (LILRA6/ILT8 [25]): no binding
- binding result (LILRB1/ILT2 [26]): no binding
- binding result (LILRB2/ILT4 [27]): no binding
- binding result (LILRB3/ILT5 [28]): no binding
- binding result (LILRB4/ILT3 [29]): no binding
- binding result (LILB5 [30]): no binding
- binding result (LILRA1 [31]): no binding
- binding result (LILRA2/ILT1 [32]): no binding
